Measurements: patent publication US20220298258A1 (Bristol-Myers Squibb, published 2022)

T1: fluorescently-conjugated human VISTA dextramer (a streptavidin dextramer loaded with monobiotinylated … (human, UniProt Q9H7M9 33-194, monobiotinylated (avi-tagged in Example 6); loaded on a fluorescently-conjugated streptavidin dextramer)
T1 construct: Multimeric reagent: many biotinylated VISTA molecules on a streptavidin dextramer; also called VISTA dextramers; dextramer loaded with recombinant human avi-tagged VISTA
T1 sequence (looked up): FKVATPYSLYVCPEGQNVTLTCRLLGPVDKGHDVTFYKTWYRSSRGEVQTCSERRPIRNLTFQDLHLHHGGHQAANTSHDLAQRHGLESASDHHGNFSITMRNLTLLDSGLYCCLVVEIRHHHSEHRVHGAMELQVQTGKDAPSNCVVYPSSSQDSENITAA

B1: recombinant human PSGL-1-Fc fusion protein (R&D Systems Catalog No. 3345-PS) (Fc fusion)
chain: QATEYEYLDYDFLPETEPPEMLRNSTDTTPLTGPGTPESTTVEPAARRSTGLDAGGAVTELTTELANMGNLSTDSAAMEIQTTQPAATEAQTTPLAATEAQTTRLTATEAQTTPLAATEAQTTPPAATEAQTTQPTGLEAQTTAPAAMEAQTTAPAAMEAQTTPPAAMEAQTTQTTAMEAQTTAPEATEAQTTQPTATEAQTTPLAAMEALSTEPSATEALSMEPTTKRGLFIPFSVSSVTHKGIPMAASNLSVIEGRMD
notes: Bought reagent; also called hPSGL-1-Fc; humPSGL-1-Fc; not shown: human IgG1, amino acids P100 to K330

How the values were obtained:
[1] = biological target: Human PSGL-1 (P-Selectin Glycoprotein Ligand 1) on primary human T cells / PBMC lymphocytes (human) (UniProt Q14242); assay: flow cytometry; inhibition of VISTA dextramer binding to activated human CD4+ T cells, pH 6.0
[2] = biological target: T1, fluorescently-conjugated human VISTA …; assay: as above
Method: The ability of soluble PSGL-1 to disrupt VISTA dextramer binding to T cells was assessed by incubating activated T cells with fluorescently-conjugated VISTA dextramers (a streptavidin dextramer loaded with a sub-optimal molar ratio of monobiotinylated recombinant human VISTA molecules) in Hanks's Balanced Salt Solution at pH 6.0 and in the presence of titrated concentrations of a control (i.e., non-VISTA or PSGL-1 specific) antibody (dots), recombinant human PSGL-1-Fc fusion protein (triangles), or recombinant human P-selectin (R&D Systems, diamonds). The recombinant human PSGL-1 Fc fusion molecule was obtained from R&D Systems Catalog No. 3345-PS, and comprises the PSGL-1 ECD sequence shown in SEQ ID NO: 18, comprising positions 42-295 of a human PSGL-1 sequence of accession number AA50061 coupled at its C-terminal to an IEGRMD linker sequence (SEQ ID NO: 19) followed by amino acids P100 to K330 of human IgG1. After incubation, the binding of the VISTA dextramer to the T cells was measured by flow cytometry. IC50 values were calculated via nonlinear regression in Prism software (GraphPad). The results, which are shown in FIG. 3 and Table 1, indicate that PSGL-1 and P-selectin inhibit binding of VISTA to the activated CD4+ T cells in a dose dependent manner at acidic pH.

Row | Molecule | IC50 [1] [nM] | IC50 [2] [nM]
1 | recombinant human P-selectin (R&D Systems) (from UniProt P16109 42-771) (receptor) | 101 | 
2 | B1 |  | 20.5
